Key:
Assay in all cases: cell_activity
[1] = test system: dLbCas12a-G532R-K595R (RR) G532R,K595R (Lachnospiraceae bacterium ND2006); conditions: PAM-SCANR in E. coli
[2] = test system: dLbCas12a-K538W K538W (Lachnospiraceae bacterium ND2006)
[3] = test system: dLbCas12a-K538W-K595Y K538W,K595Y (Lachnospiraceae bacterium ND2006)
[4] = test system: dLbCas12a-K595Y K595Y (Lachnospiraceae bacterium ND2006)
[5] = test system: dLbCas12a-T152R-K538W T152R,K538W (Lachnospiraceae bacterium ND2006); conditions: PAM TTTC; printed column identical to K538W+K595Y column
[6] = test system: wt dLbCas12a (catalytically inactive LbCas12a) (Lachnospiraceae bacterium ND2006); conditions: PAM-SCANR in E. coli, cutoff 1.67
[7] = test system: dLbCas12a-T152R T152R (Lachnospiraceae bacterium ND2006); conditions: PAM TTTG; PAM-SCANR in E. coli, cutoff 1.67
[8] = test system: dLbCas12a-T152R-K538W-K595Y T152R,K538W,K595Y (Lachnospiraceae bacterium ND2006); conditions: PAM-SCANR in E. coli
[9] = PAM CCCC, not recognized by single mutant

Substance: crRNA targeting lacI promoter ; lacI promoter reporter, CCCC PAM
- binding signal (normalized score) ([1]; PAM CCCC): 3.87
- binding signal (normalized score) [2, 9]: < 1.67
- binding signal (normalized score) ([3]; PAM CCCC, PAM-SCANR in E. coli): 2.95
- binding signal (normalized score) [4, 9]: < 1.67

Substance: crRNA targeting lacI promoter ; lacI promoter reporter, TTTC PAM
- binding signal (normalized score) ([3]; PAM TTTC, printed column identical to T152R+K538W column): 12
- binding signal (normalized score) [5]: 12
- binding signal (normalized score) ([6]; PAM TTTC): 2.96

Substance: crRNA targeting lacI promoter ; lacI promoter reporter, TTTG PAM
- binding signal (normalized score) [7]: 2.94

Substance: crRNA targeting lacI promoter ; lacI promoter reporter, TGGC PAM
- binding signal (normalized score) ([8]; PAM TGGC): 10.3

Substance: crRNA targeting lacI promoter ; lacI promoter reporter, TCGC PAM
- binding signal (normalized score) ([4]; PAM TCGC, PAM-SCANR in E. coli, cutoff 1.67): 3.23

Substance: crRNA targeting lacI promoter ; lacI promoter reporter, CCGC PAM
- binding signal (normalized score) ([6]; PAM CCGC): 2.23

Substance: crRNA targeting lacI promoter ; lacI promoter reporter, AGCC PAM
- binding signal (normalized score) ([8]; PAM AGCC): 13.7

Substance: crRNA targeting lacI promoter ; lacI promoter reporter, TTTA PAM
- binding signal (normalized score) ([2]; PAM TTTA, PAM-SCANR in E. coli, cutoff 1.67, a second K538W column gives 11.18): 4.71
- binding signal (normalized score) ([4]; PAM TTTA, TTTV lost in K595Y): < 1.67

Substance: crRNA targeting lacI promoter ; lacI promoter reporter, TTCG PAM
- binding signal (normalized score) ([1]; PAM TTCG): 4.81

From US20210115421
